These results are taken from patent US20130288389A1.

Holding throughout (assay): cell-based or functional assay
The target in assay [1] is human sporadic CJD (sCJD) brain homogenate PrP-res (human) (UniProt P04156).
Assay [2] concerns the target sheep ARQ scrapie brain homogenate PrP-res (sheep) (UniProt P23907).
The target of assay [3] is PrP^Sc of 263K scrapie-infected Syrian golden hamsters (Syrian golden hamster) (UniProt P04273).

In assay [1], monoclonal antibody 15B3 displayed an eQuIC: lowest PrP-res amount detected in 0.5 ml human cerebrospinal fluid of 10 ag and an eQuIC: lowest PrP-res amount detected in 0.5 ml human plasma of 10 ag. The substance further showed an eQuIC ("20×" 15B3 beads): lowest PrP-res amount detected in 0.5 ml plasma in assay [2] of 100 ag. In assay [3], the IP-RT-QuIC (ThT fluorescence): lowest brain dilution detected in human plasma (dilution of brain tissue) is 1e-10; the IP-RTQ speed and sensitivity with higher 15B3 content on beads (fold higher 15B3 on beads) turned out to be 12.
